Publication PMC3575409, “Identification of a Novel Protein-Protein Interaction Motif Mediating Interaction of GPCR-Associated Sorting Proteins with G Protein-Coupled Receptors” (PLoS ONE, 2013)

What was measured:
Format in all cases: binding
GST-fused FZ4 C-tail = test: GST-pull down, FZ4 C-tail; conditions: strong = >10% of GASP input
Description: (§1) cDNAs encoding the cytoplasmic C-tail of 14 GPCRs and 2 one-transmembrane receptors were cloned into the pGEX-2T prokaryotic expression vector downstream the GST sequence. […]
(§2) GST-fusion proteins were immobilized on glutathione-coupled Sepharose beads (GE Healthcare) for 1 h at 4°C and incubated with [^35S]-labelled in vitro translated GASP proteins or their truncated or mutated forms in ice-cold binding buffer containing: 20 mM Tris-HCl pH 7.4, 150 mM NaCl, 1 mM EDTA, 1 mM DTT, 10% glycerol and 1% Triton X-100. […] The supernatants were then analyzed by SDS-PAGE, the gels were stained with Coomassie blue to visualize GST-fusion proteins, dried and analyzed using a Phosphor-imager (Personal Molecular Imager FX, Biorad) to visualize [^35S]-labelled GASPs. Quantification was performed with the Quantity One software (Biorad). GST-pull down quantification data were analyzed using GraphPad Prism 4.03 (GraphPad Software). Quantifications presented are means of at least three independent experiments.

[1] = system: GST-fused IGF1 (insulin growth factor I receptor) C-tail; test: GST-pull down, IGF1 C-tail; conditions: non-GPCR control
Excerpt: (§3) cDNAs encoding the cytoplasmic C-tail of 14 GPCRs and 2 one-transmembrane receptors were cloned into the pGEX-2T prokaryotic expression vector downstream the GST sequence. The following pGEX constructs were engineered: pGEX-DOR encoding residues 314–372 of the δ-opioid receptor (referring to Swiss-Prot accession number U10504), pGEX-MOR encoding residues 334–400 of the µ-opioid receptor (L29301), pGEX-KOR encoding residues 326–380 of the κ–opioid receptor (U17298), pGEX-ORL1 encoding residues 315–370 of the opioid receptor-like 1 (X77130), pGEX-M1 encoding residues 414–460 of the muscarinic M1 acetylcholine receptor (X52068), pGEX-M2 encoding residues 436–466 of the muscarinic M2 acetylcholine receptor (M16404), pGEX- ADRB1 encoding residues 373–477 of the β1 adrenergic receptor (J03019), pGEX-ADRB2 encoding residues 322–413 of the β2 adrenergic receptor (P07550), pGEX-CALCR encoding residues 407–490 of the calcitonin receptor (L00587), pGEX-CNR2 encoding residues 295–360 of the cannabinoid type 2 receptor (P34972), pGEX-5HT7 encoding residues 380–445 of the 5-hydroxytryptamine 7 receptor (L21195), pGEX-H2 encoding residues 284–349 of the histamine 2 receptor (S57565), pGEX-TXA2 encoding residues 304–343 of the α isoform of the thromboxane A2 receptor (D38081), pGEX-FZ4 encoding residues 493–537 of the frizzled 4 receptor (AB032417), pGEX-TGFβ encoding residues 805–849 of the type III transforming growth factor b receptor (L07594), pGEX-IGF1 encoding residues 1268–1367 of the insulin growth factor I receptor (X04434). Free GST was produced by using the pGEX-4T3 expression vector without insert. The same plasmid was used to clone the cDNA encoding a central domain of GASP-1, corresponding to amino acids 380 to 1073, downstream the GST sequence. All these plasmids were transformed into the Escherichia coli BL21 strain and expression was induced using 1mM of isopropylthiogalactoside for 2 h at 37°C. Bacteria were then pelleted, resuspended in PBS supplemented with cOmplete protease inhibitors (Roche), lysed at 1.5 kbar using a basic Z cell disrupter (constant system) and finally the lysates were cleared by centrifugation (10,000g, 15 min, 4°C).
(§4) cDNAs encoding GASP-1 and GASP-2 were cloned into the pcDNA3 eukaryotic expression vectors. cDNAs encoding GASP-3, -6, -7, and -9 were subcloned into pcDNA3.1 vectors. All the clones were controlled by DNA sequencing. The in vitro production was performed by using the TNT Quick-coupled Transcription/Translation T7 kit (Promega) in presence of [^35S]-Methionine according to the instructions from the manufacturer.
(§5) GST-fusion proteins were immobilized on glutathione-coupled Sepharose beads (GE Healthcare) for 1 h at 4°C and incubated with [^35S]-labelled in vitro translated GASP proteins or their truncated or mutated forms in ice-cold binding buffer containing: 20 mM Tris-HCl pH 7.4, 150 mM NaCl, 1 mM EDTA, 1 mM DTT, 10% glycerol and 1% Triton X-100. The mixture was incubated for 1 h at 4°C with gentle rocking. The beads were washed five times with the same ice-cold buffer, resuspended in 30 µl SDS-PAGE sample buffer, incubated 10 min at 65°C, and pelleted for 60 s at 3000 g. The supernatants were then analyzed by SDS-PAGE, the gels were stained with Coomassie blue to visualize GST-fusion proteins, dried and analyzed using a Phosphor-imager (Personal Molecular Imager FX, Biorad) to visualize [^35S]-labelled GASPs. Quantification was performed with the Quantity One software (Biorad). GST-pull down quantification data were analyzed using GraphPad Prism 4.03 (GraphPad Software). Quantifications presented are means of at least three independent experiments.

GST-fused GPCR C-tails = test: GST-pull down, GPCR C-tails
Excerpt: as §3, §4
as §5, with “experiments. […]” for “experiments.”

[2] = system: GST-fused TGFβ (type III transforming growth factor β receptor) C-tail; test: GST-pull down, TGFβ C-tail; conditions: non-GPCR control
Excerpt: as §3, §4, §5

GST-fused M1 C-tail = test: GST-pull down, M1 C-tail; conditions: for interaction of truncated GASP-1 with M1 C-tail (words): compared with full-length GASP-1
Excerpt: as §3, §4, §5

GST-fused ADRB1 C-tail = test: GST-pull down, ADRB1 C-tail; conditions: for interaction of truncated GASP-1 with ADRB1 C-tail (words): compared with full-length GASP-1
Excerpt: as §3, §4, §5

GST-fused DOR C-tail = test: GST-pull down, DOR C-tail; conditions: for interaction of truncated GASP-1 with DOR C-tail: compared with full-length GASP-1
Excerpt: as §3, §4, §5

GST-fused CALCR C-tail = test: GST-pull down, CALCR C-tail; conditions: compared to wild-type GASP-2
Description: as §1, §2

B1: GASP-3: member of the GASP family, two GASP motifs (protein)
chain: MAGTKNKTRAQAKTEKKAAIQAKAGAEREATGVVRPVAKTRAKAKAKTGSKTDAVAEMKAVSKNKVVAETKEGALSEPKTLGKAMGDFTPKAGNESTSSTCKNEAGTDAWFWAGEEATINSWFWNGEEAGNSFSTKNDKPEIGAQVCAEELEPAAGADCKPRSGAEEEEEENVIGNWFWEGDDTSFDPNPKPVSRIVKPQPVYEINEKNRPKDWSEVTIWPNAPAVTPAVLGFRSQAPSEASPPSYIVLASAEENACSLPVATACRPSRNTRSCSQPIPECRFDSDPCIQTIDEIRRQIRIREVNGIKPFACPCKMECYMDSEEFEKLVSLLKSTTDPLIHKIARIAMGVHNVHPFAQEFINEVGVVTLIESLLSFPSPEMRKKTVITLNPPSGDERQRKIELHVKHMCKETMSFPLNSPGQQSGLKILGQLTTDFVHHYIVANYFSELFHLLSSGNCKTRNLVLKLLLNMSENPTAARDMINMKALAALKLIFNQKEAKANLVSGVAIFINIKEHIRKGSIVVVDHLSYNTLMAIFREVKEIIETM
modifications: [35S]-methionine labelled
interaction with FZ4 C-tail (GST-fused FZ4 C-tail): strong interaction | interaction with IGF1 C-tail [1]: no interaction was detected | GASP input retained by GPCR C-tails (GST-fused GPCR C-tails; percent of GASP input): > 10% | interaction with GPCR C-tails (GST-fused GPCR C-tails; twelve GPCR C-tails): medium to strong interactions | interaction with TGFβ C-tail [2]: no interaction was detected

B2: mutant 1025–1395: truncated mutant of GASP-1 corresponding to the conserved C-terminal domain (protein)
chain: ICRSTCSVEQEPDPSRRPQSWEEVTVQFKPGPWGRVGFPSISPFRFPKEAASLFCEMFGGKPRNMVLSPEGEDQESLLQPDQPSPEFPFQYDPSYRSVQEIREHLRAKESTEPESSSCNCIQCELKIGSEEFEELLLLMEKIRDPFIHEISKIAMGMRSASQFTRDFIRDSGVVSLIETLLNYPSSRVRTSFLENMIRMAPPYPNLNIIQTYICKVCEETLAYSVDSPEQLSGIRMIRHLTTTTDYHTLVANYMSGFLSLLATGNAKTRFHVLKMLLNLSENLFMTKELLSAEAVSEFIGLFNREETNDNIQIVLAIFENIGNNIKKETVFSDDDFNIEPLISAFHKVEKFAKELQGKTDNQNDPEGDQEN
modifications: [35S]-methionine labelled
interaction of truncated GASP-1 with M1 C-tail (words) (GST-fused M1 C-tail): did not display detectable interactions | interaction of truncated GASP-1 with M1 C-tail (words) (GST-fused M1 C-tail; listed as 1025–1395): no significant interaction | interaction of truncated GASP-1 with ADRB1 C-tail (words) (GST-fused ADRB1 C-tail): did not display detectable interactions | interaction of truncated GASP-1 with ADRB1 C-tail (words) (GST-fused ADRB1 C-tail; listed as 1025–1395): no significant interaction | interaction of truncated GASP-1 with DOR C-tail (GST-fused DOR C-tail): interacted only weakly | interaction with DOR C-tail relative to full-length GASP-1 (GST-fused DOR C-tail; percent of full-length GASP-1 interaction, three independent experiments): 25%

B3: mutant 470–838: truncated GASP-2 corresponding to the C-terminal domain (protein)
chain: KVSDRFRDAAEELNASSRPQTWDEVTVEFKPGLFHGVGFRSTSPFGIPEEASEMLEAKPKNLELSPEGEEQESLLQPDQPSPEFTFQYDPSYRSVREIREHLRARESAESESWSCSCIQCELKIGSEEFEEFLLLMDKIRDPFIHEISKIAMGMRSASQFTRDFIRDSGVVSLIETLLNYPSSRVRTSFLENMIHMAPPYPNLNMIETFICQVCEETLAHSVDSLEQLTGIRMLRHLTMTIDYHTLIANYMSGFLSLLTTANARTKFHVLKMLLNLSENPAVAKKLFSAKALSIFVGLFNIEETNDNIQIVIKMFQNISNIIKSGKMSLIDDDFSLEPLISAFREFEELAKQLQAQIDNQNDPEVGQQS
modifications: [35S]-methionine labelled
interaction of GASP-2 mutants with M1 C-tail (GST-fused M1 C-tail; compared to wild-type GASP-2): almost no interaction | interaction of GASP-2 mutants with CALCR C-tail (GST-fused CALCR C-tail): almost no interaction | interaction of GASP-2 mutants with ADRB1 C-tail (GST-fused ADRB1 C-tail; compared to wild-type GASP-2): almost no interaction

B4: mutant 380–1395: truncated mutant of GASP-1 that lacks the N-terminal part (protein)
chain: MTKEEAKTKARARAKQEARSEEEALIGTWFWATDESSMADEASIESSLQVEDESIIGSWFWTEEEASMGTGASSKSRPRTDGERIGDSLFGAREKTSMKTGAEATSESILAADDEQVIIGSWFWAGEEVNQEAEEETIFGSWFWVIDAASVESGVGVSCESRTRSEEEEVIGPWFWSGEQVDIEAGIGEEARPGAEEETIFGSWFWAENQTYMDCRAETSCDTMQGAEEEEPIIGSWFWTRVEACVEGDVNSKSSLEDKEEAMIPCFGAKEEVSMKHGTGVRCRFMAGAEETNNKSCFWAEKEPCMYPAGGGSWKSRPEEEEDIVNSWFWSRKYTKPEAIIGSWLWATEESNIDGTGEKAKLLTEEETIINSWFWKEDEAISEATDREESRPEAEEGDIIGSWFWAGEEDRLEPAAETREEDRLAAEKEGIVGSWFGAREETIRREAGSCSKSSPKAEEEEVIIGSWFWEEEASPEAVAGVGFESKPGTEEEEITVGSWFWPEEEASIQAGSQAVEEMESETEEETIFGSWFWDGKEVSEEAGPCCVSKPEDDEEMIVESWFWSRDKAIKETGTVATCESKPENEEGAIVGSWFEAEDEVDNRTDNGSNCGSRTLADEDEAIVGSWFWAGDEAHFESNPSPVFRAICRSTCSVEQEPDPSRRPQSWEEVTVQFKPGPWGRVGFPSISPFRFPKEAASLFCEMFGGKPRNMVLSPEGEDQESLLQPDQPSPEFPFQYDPSYRSVQEIREHLRAKESTEPESSSCNCIQCELKIGSEEFEELLLLMEKIRDPFIHEISKIAMGMRSASQFTRDFIRDSGVVSLIETLLNYPSSRVRTSFLENMIRMAPPYPNLNIIQTYICKVCEETLAYSVDSPEQLSGIRMIRHLTTTTDYHTLVANYMSGFLSLLATGNAKTRFHVLKMLLNLSENLFMTKELLSAEAVSEFIGLFNREETNDNIQIVLAIFENIGNNIKKETVFSDDDFNIEPLISAFHKVEKFAKELQGKTDNQNDPEGDQEN
modifications: [35S]-methionine labelled
interaction of truncated GASP-1 with M1 C-tail (words) (GST-fused M1 C-tail): interacted similarly | interaction of truncated GASP-1 with ADRB1 C-tail (words) (GST-fused ADRB1 C-tail): interacted similarly | interaction of truncated GASP-1 with DOR C-tail (GST-fused DOR C-tail): interacted similarly
